Data on 17 sequences can be found in a protein production outcome set (Wang et al. 2014).
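Note: failed if final PepcDB status was selected cloned or expressed and not failed if soluble or beyond.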

The nature of this data set: label from the status in PepcDB records.
Consider “MQASENSHDDFLFIDDSDEDEILAFGSNETWQVLIVDDDPEIHSVTQLALSDLVVLGRRLEYLHAYSGKDACQLIENNDDIVLVLLDVVMETDDAGLNVVKYIRETLQRKDIRIVLRTGQPGYAPEESVIKEYDINDYKTKTELTRRKLVTTVFAAIRSFQQIATVNENRQGLEKIVSGATELSSQHSLPTFSQSVLSQLRTLISDDISAVFCARGQGIIDNIDDLSFYVLAQIGFDDSLLNQKIDTLQDNQANKQVKACFLQQKHQYLDDSLDLYVAKGDYRAVIHVRLSSPLTEIQTQLLNVFLTGVAVGYENVHLFQKLTNAAYRDWLTNLPNRLEFVRLLDSFAQNDCKNTVAALIDINHFSDINDALGQDIGNKLLSAVGQRIQSIGSDCQLARVGADVFGIIGPADCLTPESLIALFHQPFAAGEQHLPINACFGLCTKEHAQSSGVQVLNQINIALNIAKKNRLEHFAYYHSDIEDQMQWRLNMIRQLRNDFGNNCLELWYQPQLSLTTGKVIGAEALLRWRTADGKFVSPAVFIPLAEYSGLIIEIGDWVISQACKQLKVLEENFSDLSISVNVSIPQFRQDNFVDNIINTMTQYGIKPNKLELEITENILMDEPQIIIDALTKLKAQGISIALDDFGTGFSSLSYLQKLPLNRLKVDRAFVTDINKEGQSVIAETIINLGKKMQLKVIAEGIEEIEQQERLIELGCDEVQGFYYAKPMPADEFINFLHQQS”, for which the protein production result is on record as “failed”.
On to “MQATMTDKNTRELLLDAATTLFAEQGIAATTMAEIAASVGVNPAMIHYYFKTRDSLLDTIIEERIGRIIDMIWEPVTGEEDDPLIMVRDLVNRIVNTCETMLWLPSLWIREIVNEGGALREKMLNNIPIDKMNKFSAKIAEGQKQGVINSGIDSRLLIGSIIGLTMLPLATAKLRDQIPTMKGLSSEDIVCHVTALLFTGLTNPSNSDDIKKQRT”, for which the protein production result is reported as “not failed”.
In the case of “MQATTATPHDIVFLFDCDNTLLDNDHVLADLRAHMMREFGAQNSARYWEIFETLRTELGYADYLGALQRYRLEQPRDTRLLLMSSFLIDYPFASRVYPGALNALRHLGARGPTVILSDGDVVFQPRKIARSGLWDEVEGRVLIYIHKELMLDQVMECYPARHYVMVDDKLRILAAMKKAWGARLTTVFPRQGHYAFDPKEISSHPPADVTVERIGDLVEMDAEWLLAEKR”, the protein production result is on record as “not failed”.
For “MQAVLTAALPVFALILTGWLAARWRVLGPSATDALNRYVVYLSLPALLFRAMAQADLRQLADYWGFTAAVAGGIALTFGAAILACRRDGARLTDLSLEGLATSYGNAGYMGIPLCLALLGPASLAPAIITTLLTACVLFGVAIALIEFDQHRDRHWSATLLKVARALLRNPLLAAPLLGLACAAAGITLPAGLDNYAALLGASASPCALVTIGLFLAQSQPGGDRGTVGLMVDGKLLLHPAVTAVLAFAVFDMPPLWAWCAVLMAALPIGTGPFMLAQLYGRDARPSSRAILLSTVLSVPTITALVAWIGRQPLG” the value was “failed”.
With “MQDKNFDKLAQKFAKNIYGTPKGEIRAAVLWRDLAPALAQFGDKKLRILDAGGGFGYFSQKLARLGHEVVLCDISAEMLAQAKEQIDASDTPLAIRLVHAPIQALSITEHGMFDLILCHAVVEWLADAKTTMEGLLTMLKPNGLFSLMFYNKEAMRFHALVSGNFDYVAADLKVKKKVRLTPTHPLYIHEVKLWFAQWQMALLKESGVRVIHDYLKKQQAADFDYQKLLSMELEYSQREPYISLGRYVHFLGLEHHHHHH”, the protein production entry is given as “failed”.
The entry for “MQDSLGIMIKKANNALARDSDHYAKSLGLTGMQISTINFIANNEQHHDLFQRDLELEFNIRKATCSSLVSKMEAADLLIRVPAKDDGRYKRLLLTPKARQLATKIERFFETSEQRMATILGVNTAETYEALRQIAVAFSTPTHAPENWY” is “failed”; for “MQDWWEADNRLADWLSMILIQRTIEKNAKQALANLGPHLDLESLIGMDMATLEEYIYPAGFYKQKSIYIKALIKWFHGHGASLDKFQTYSTEDLRKELLGIKGVGEETADAMLLYIFERNVFIADLEHHHHHH” it is “failed”.
The entry for “MQEKGFKEGVKASLPTALGYVSIGLACGVVGANSGLTPFQMGLMSLLVYAGSAQFVMCAMFVAGADLFSIVMTVFLINLRNFLMSLHATTIFTKSSLWQTICIGTLITDESYGVLLNEHVHHKNISTAWMHGNNITGYIAWLFAVILGTALGSVIPNPETLGLDFALIAMFVSIFESQLAAMMQFVKLKKIGLILLAVTLSYFLLVIVISESLAVLLSTLIGCFAGVLLDVR” is “failed”.
For “MQEKPAATGKADESAASKELLKLLRKAVAAVSGEDGWASLSNLGSHISKIRPSFDSRNYGYSKLSTLVKNLDIFETRMVPSADKLHTDVFLRLKDGKLEHHHHHH” the value was “failed”.
Regarding “MQENPSSSPFERRMESYQTQDSNDLHQLWRPREEDLEKLYRVPLGLTNEQLVEKLQLFSGEGEEKTLFVWVNRDLLGYRFLFWLTGMVLKEKQDGDVEHANKLEIIRDWVIESVVKIDRFLVRRVKQAEEKLKSLIQDYDSFKTSPEKKLLQITGQSEMDFVCLWVVVYTAVIAWKLRAAQTESSATHPSSIVVSECRHLLEQKDVFQRKTPKGLKLVAQLFDRSIEELNPRLKTLGDTDIREIGRLMTILELLPADPYRLLCRIACNLYDGAILLQYGVENYQIGSVRFGLDPYSFDSESKIPKLNNPFITIGK”, the protein production result is given as “failed”.
The entry for “MQERIKACFTESIQTQIAAAEALPDAISRAAMTLVQSLLNGNKILCCGNGTSAANAQHFAASMINRFETERPSLPAIALNTDNVVLTAIANDRLHDEVYAKQVRALGHAGDVLLAISTRGNSRDIVKAVEAAVTRDMTIVALTGYDGGELAGLLGPQDVEIRIPSHRSARIQEMHMLTVNCLCDLIDNTLFPHQDD” is “not failed”; for “MQFLAPIISIVVGFLSFVLVLRTWMQFCQVSAYLPLSQSLLRLTAPMVNPVSKFIPTVKNINFAALLIALALLAVEKGVLGLPLTMAVLVGLLGIIKMFGQILFFTTLIRALMSWVTRGDHPLDEVIAQITEPVLGIIRKILPRTGMLDFSVMVLGFGLLLLNNLFYSVFGAFWAVA” it is “failed”; for “MQFLGRSISKSIRPSLNSTARKSWVLSSQQFLSTSSTESSSRTRGGGGGNRAEKSSEEWPRPMEVPYQPKIANSIDLIGYVHQPVQFDSTLDGKFWAGTVISHEPSSDSKSESDSSSNFWIPVLFEGDLAHTANSYLKKNDRVHITGQILGDVIQSGANSDQAHVQLFKSFHGSFSHQVMVRDLHYIEGSKAMPKVLPTLDQNEGVLKHSASVQRGREFGTNLWFDLVDKPNEWCDYREMKQNGSVNPKHPDFKKKDGSQALWLNNAPTEILSELKDVKFDIPKYAKQPKAGEESWKDLVDNMNKWWDNRVDKRTPKSPDFKHKETGVGLWLSDSPSWVLEKLPPPKSKTSDIYGVQEMF” it is “failed”.
“MQFLNQSLGFFNKGCFEPIDRNFITESYQALKPIEEIQNKYNKHDNDSFLNELRDSMVALYLDYELINIQKHGLDAKRSSSDEFLEIKQVSFQSQLIKEFEFKMKPIDSKEQELINLFNLKFGHFSWENYLA”: the protein production entry was “failed”.
For “MQFNPTLDSIKTYEAGKPIELVVREYGIKPQNVIKLASNENPFGASPKVIEAIAKEAVNAHRYPDDSMFELKEGLAGRFGVKSENVIIGSGSDQILEMAVHAKCNASSKVLMSKTTFAMYDVYSRQVGARILRTPSDQHHLGEFWEIYQKERPEILFLCLPNNPLGECLDREEVYDFLQKIDDETLVIVDGAYQEYAAFKDSQKRIDPKDLIERFPSSIFLGTFSKAFGLGGMRVGYGIAQPSIIQALMKMRAPFNITTLSLKAAIEALKESAYVEETIKENFKEMRRYEEFALAQGIDFIPSYTNFITLLLKNRVDSSEFSQWLLERGLIVRNLKSYGINAIRITIGRSLENDRCFELMQEYLHQF”, the protein production result is on record as “failed”.
The entry for “MQFPSIEDLRARNTMKWTRYGQGVLPLWVAESDFSTCPAVLQAITDAVQREAFGYQPDGSLLSQATAEFYADRYGYQARPEWIFPIPDVVRGLYIAIDHFTPAQSKVIVPTPAYPPFFHLLSATQREGIFIDATGGINLHDVEKG” is “failed”; for “MQFSTTPTLEGLTIVEYCGVVTGEAILGANIFRDFFAGIRDIVGGRSGAYEKELRKAREIAFEELGSQARALGADAVVGIDIDYETVGQNGSMLMVSVSGTAVKTRR” it is “not failed”.
